In patent US20070116702A1, “Survival promoting NCAM binding and MCAM ligand binding compounds” (priority 2001, published 2007):

Key:
NCAM Ig1 domain = target: T1, NCAM Ig1 domain (Rattus norvegicus, UniProt P13596); test: Real-time biomolecular interaction analysis (BIAlite surface plasmon resonance), Ig1 applied to immobilised dendrimer peptides; format: binding; conditions: dendrimer peptides immobilised on sensor chip CM5, 25° C., HBS; two independent experiments
T1 construct: The Ig1 domain of NCAM was produced as a recombinant protein in Pichia pastoris; made in house; host or cells: Pichia pastoris strain His 4 GS-115 (pHIL-S1 plasmid)
T1 sequence (P13596 20-111 limits assumed): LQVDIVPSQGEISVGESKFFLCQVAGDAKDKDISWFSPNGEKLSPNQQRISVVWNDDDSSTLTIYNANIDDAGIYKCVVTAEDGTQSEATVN
Text: The Ig1 domain of NCAM was produced as a recombinant protein in Pichia pastoris. The cDNA fragment of rat NCAM was synthesised by PCR, and amplified cDNA was subcloned into an Xho I/Bam HI site of the pHIL-S1 plasmid (Invitrogen Corporation, San Diego, USA). An E. coli strain Top 10 F′ (Invitrogen Corporation, San Diego, USA) was used for transformation. The recombinant plasmid was linearised with Nsi I and used for transformation of Pichia pastoris strain His 4 GS-115 (Invitrogen Corporation, San Diego, USA). Transformation and selection was performed according to a Pichia Expression Kit manual supplied by the manufacturer. The recombinant protein was designated as Ig1 PP (Ig-like domain 1 produced in P. pastoris) The authenticity of Ig1 PP was secured by amino acid sequencing and MALDI-MS confirming the expected molecular weight of 11 kD. Cells were grown essentially according to the Pichia Expression Kit manual. After induction supernatant from growing cells was filtered through a […] filter, concentrated by ultrafiltration and purified by gel filtration using a Sephadex G-50 column (Pharmacia Biotech AB, Sweden) (Thomsen et al., 1996).
Real-time biomolecular interaction analysis was performed using a BIAlite instrument (Pharmacia Biosensor AB, Sweden). All experiments were performed at 25° C. using Hepes buffered saline (HBS: 10 mM Hepes pH 7.4, 150 mM NaCl, 3.4 mM EDTA, 0.005% v/v Surfactant P20 (Pharmacia Biosensor, Sweden) as running buffer. The flow rate was […]. Dendrimer peptides C3d, D3d and D4d (four peptide-monomers coupled to a backbone consisting of three lysines) were immobilised on a sensor chip CM5 (Pharmacia Biosensor AB, Sweden) using the following procedure: the chip was activated by […] 0.05 M N-hydroxysuccinimide, 0.2 M N-ethyl-N′-(dimethylaminopropyl)carbodiimide; peptides were immobilised using […] peptide solution in HBS at a concentration of 60 μg/ml; finally the chip was blocked by 35 μl 1 M ethanolamine hydrochloride pH 8.5. Binding of Ig1 to dendrimer peptides: […] of Ig1 or Ig1I at the indicated concentrations were applied. […]

Hippocampal cells = test: Aggregate cell cultures of hippocampal cells (aggregates counted after 24 h); format: cell-based, rat; conditions: ligand present during the aggregation of cells; quantified 24 h after seeding
Protocol: A variety of suitable fragments and variants of NCAM has been discussed above. To be able to identify candidate ligands capable of stimulating NCAM function, where the NCAM function means the function of the NCAM molecule, the inventors have established a simple cell culture system (aggregate cell cultures) that permits a quantitative evaluation of the effect of various ligands. Hippocampal cells are provided from rat embryos. The cells are grown in a defined medium and dissociated cells are seeded in microtiter plates. After 24 h, the, amount of aggregates are counted. Compounds to be tested are added to the cell suspension immediately before seeding of the cells in micro-wells. When NCAM Ig1 binding ligands are present during the aggregation of cells, smaller, but more numerous cell aggregates are seen when quantified 24 h after seeding of the cells. The inhibiting effect of the ligands results in a blockage of the formation of large aggregates from many small aggregates as the adhesion, properties of NCAM are blocked. Thus, small but more numerous cell aggregates are seen in the presence of active ligands.

[1] = system: cells presenting NCAM or NCAM ligands; test: Prevention of cell death (survival) of cells presenting NCAM or NCAM ligands; format: cell-based; conditions: general statement; data only in figures
Protocol: PC12 cells were differentiated by plating them in 96-well tissue culture plates in defined medium (DMEM) supplemented with NGF (50-100 ng/ml) and were normally used after 6-8 days of NGF treatment. NGF withdrawal was performed as follows: the medium was removed, and the cells were quickly rinsed twice with pre-warmed medium, and then re-fed with DMEM supplemented with C3d. After 2 days of incubation cells were assayed for cell survival by measuring reduction of a novel tetrazolium compound, MTS (Promega, USA), which is bioreduced by cells into a formazan that is soluble in tissue culture medium. The absorbance of the formazan at 490 nm was measured directly from 96 well assay plates without additional processing. The conversion of MTS into the aqueous soluble formazan was accomplished by dehydrogenase enzymes found in metabolically active cells. The quantity of formazan product as measured by the amount of 490 nm absorbance was directly proportional to the number of living cells in culture (Yao and Cooper, 1995; CellTiter 96 Aqueous non-radioactive cell proliferation assay, Promega, 1996; Eilers et al., 1998).
PC12 cells were plated in 96-well tissue culture plates in the absence of growth factors (serum starvation) for 6 days in DMEM supplemented with C3d and assayed for cell survival by reduction of MTS, as described above (Gollapudi and Oblinger, 1999; Williams and Doherty, 1999). […]

cells presenting NCAM = conditions: by activating a signalling pathway identical to that activated by homophilic NCAM binding; cited from earlier work

Substance	binding to the NCAM Ig1 domain (NCAM Ig1 domain)	inhibition of aggregation of hippocampal cells (Hippocampal cells)	preventing cell death [1]	stimulation of outgrowth (cells presenting NCAM)
C3d: Dendrimer of C3: four peptide-monomers coupled to a backbone consisting of three lysines (ASKKPKRNIKA)	bind to the NCAM Ig1 domain			
D3d: Dendrimer of D3: four peptide-monomers coupled to a backbone consisting of three lysines (AKKERQRKDTQ)	bind to the NCAM Ig1 domain			
ASKKPKRNIKA (listed as Homo sapiens) [C3]		inhibited aggregation	capable of preventing cell death	stimulates outgrowth
D4d: Dendrimer of D4: four peptide-monomers coupled to a backbone consisting of three lysines (ARALNWGAKPK)	bind to the NCAM Ig1 domain			
